# Test results reported in publication PMC10786891, “Massively parallel profiling of RNA-targeting CRISPR-Cas13d”.
# T1: EsCas13d, nuclease-dead (Eubacterium siraeum, UniProt B0MS50, R295A;H300A;R849A;H854A)
# T1 sequence: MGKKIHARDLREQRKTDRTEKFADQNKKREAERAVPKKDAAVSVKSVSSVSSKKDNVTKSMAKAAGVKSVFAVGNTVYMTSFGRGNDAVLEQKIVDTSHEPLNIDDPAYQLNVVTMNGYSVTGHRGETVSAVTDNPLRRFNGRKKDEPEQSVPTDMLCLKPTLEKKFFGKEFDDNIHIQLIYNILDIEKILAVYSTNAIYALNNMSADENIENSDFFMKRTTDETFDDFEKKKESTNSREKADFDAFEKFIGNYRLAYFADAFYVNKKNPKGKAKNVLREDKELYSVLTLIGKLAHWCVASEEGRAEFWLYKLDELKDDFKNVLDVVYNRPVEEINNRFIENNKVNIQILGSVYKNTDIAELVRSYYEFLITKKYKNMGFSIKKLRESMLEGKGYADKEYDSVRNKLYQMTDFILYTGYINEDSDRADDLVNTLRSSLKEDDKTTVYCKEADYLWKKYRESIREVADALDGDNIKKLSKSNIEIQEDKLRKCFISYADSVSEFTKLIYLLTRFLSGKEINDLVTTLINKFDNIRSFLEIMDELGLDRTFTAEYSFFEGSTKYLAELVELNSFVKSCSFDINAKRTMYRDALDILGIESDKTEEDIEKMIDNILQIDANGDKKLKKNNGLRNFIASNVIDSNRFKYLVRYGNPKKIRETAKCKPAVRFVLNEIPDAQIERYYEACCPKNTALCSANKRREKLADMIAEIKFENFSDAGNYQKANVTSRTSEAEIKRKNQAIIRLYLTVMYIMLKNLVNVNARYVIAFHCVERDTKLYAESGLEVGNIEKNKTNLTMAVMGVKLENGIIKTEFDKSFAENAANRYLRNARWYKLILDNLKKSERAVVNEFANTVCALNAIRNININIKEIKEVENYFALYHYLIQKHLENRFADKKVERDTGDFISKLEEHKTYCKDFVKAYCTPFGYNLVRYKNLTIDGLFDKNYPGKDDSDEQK
# Biological target: T1, EsCas13d, nuclease-dead
# Assay: crRNA (strand 1, pre-loaded); Mg2+; 40 mM Tris-HCl pH 7.5, 150 mM NaCl, 6 mM MgCl2, 1 mM DTT, 0.1% Tween-20, 0.2 mg/ml BSA; 25 C; 10 min per concentration, then washed
# Conditions: tags: His6-TwinStrep-SUMO cleaved; N-terminal SNAP kept (SNAP-Surface 488); label: 3' end held by stalled T7 RNA polymerase
row,Binder,Kd [nM]
1,target 1 complement block 1-3 (mixed) RNA 1: CACCCGUGCAAAAAUGCAGGGGUCUAAAACUGAGCGGAUAACCUCUCUAUGG RNA 2: GGGAAUGGAUCCACAUCUACGAAUUCGUACCAUAGAGAGGUUAUCCGCAGUCCGAGAUCGGAAGAGCACACGU,7 ± 0.5
2,"target 1 insG 3' of 8,insU 3' of 4 (mixed) RNA 1: CACCCGUGCAAAAAUGCAGGGGUCUAAAACUGAGCGGAUAACCUCUCUAUGG RNA 2: GGGAAUGGAUCCACAUCUACGAAUUCGUACCAUAGAGAGGUUAUGCCGCUUCACCGAGAUCGGAAGAGCACACGU",9.44 ± 0.34
3,"target 1 G12A,C21U (mixed) RNA 1: CACCCGUGCAAAAAUGCAGGGGUCUAAAACUGAGCGGAUAACCUCUCUAUGG RNA 2: GGGAAUGGAUCCACAUCUACGAAUUCGUACUAUAGAGAGAUUAUCCGCUCACCGAGAUCGGAAGAGCACACGU",7.8 ± 0.5
4,"target 1 insU 3' of 5,insG 3' of 2 (mixed) RNA 1: CACCCGUGCAAAAAUGCAGGGGUCUAAAACUGAGCGGAUAACCUCUCUAUGG RNA 2: GGGAAUGGAUCCACAUCUACGAAUUCGUACCAUAGAGAGGUUAUCCGUCUCGACCGAGAUCGGAAGAGCACACGU",9.1 ± 0.5
5,"target 1 insA 3' of 6,insG 3' of 1 (mixed) RNA 1: CACCCGUGCAAAAAUGCAGGGGUCUAAAACUGAGCGGAUAACCUCUCUAUGG RNA 2: GGGAAUGGAUCCACAUCUACGAAUUCGUACCAUAGAGAGGUUAUCCAGCUCAGCCGAGAUCGGAAGAGCACACGU",16 ± 1.2
6,"target 1 U3G,C6A (mixed) RNA 1: CACCCGUGCAAAAAUGCAGGGGUCUAAAACUGAGCGGAUAACCUCUCUAUGG RNA 2: GGGAAUGGAUCCACAUCUACGAAUUCGUACCAUAGAGAGGUUAUCAGCGCACCGAGAUCGGAAGAGCACACGU",6.3 ± 0.4
7,"target 1 U3C,U10C (mixed) RNA 1: CACCCGUGCAAAAAUGCAGGGGUCUAAAACUGAGCGGAUAACCUCUCUAUGG RNA 2: GGGAAUGGAUCCACAUCUACGAAUUCGUACCAUAGAGAGGUCAUCCGCCCACCGAGAUCGGAAGAGCACACGU",51 ± 9
8,"target 1 C2U,G15C (mixed) RNA 1: CACCCGUGCAAAAAUGCAGGGGUCUAAAACUGAGCGGAUAACCUCUCUAUGG RNA 2: GGGAAUGGAUCCACAUCUACGAAUUCGUACCAUAGACAGGUUAUCCGCUUACCGAGAUCGGAAGAGCACACGU",49 ± 5
9,"target 1 insU 3' of 22,insC 3' of 15 (mixed) RNA 1: CACCCGUGCAAAAAUGCAGGGGUCUAAAACUGAGCGGAUAACCUCUCUAUGG RNA 2: GGGAAUGGAUCCACAUCUACGAAUUCGUACUCAUAGAGCAGGUUAUCCGCUCACCGAGAUCGGAAGAGCACACGU",67 ± 14
10,"target 1 insA 3' of 19,insA 3' of 8 (mixed) RNA 1: CACCCGUGCAAAAAUGCAGGGGUCUAAAACUGAGCGGAUAACCUCUCUAUGG RNA 2: GGGAAUGGAUCCACAUCUACGAAUUCGUACCAUAAGAGAGGUUAUACCGCUCACCGAGAUCGGAAGAGCACACGU",31.1 ± 2.7
11,"target 1 C2G,U3A (mixed) RNA 1: CACCCGUGCAAAAAUGCAGGGGUCUAAAACUGAGCGGAUAACCUCUCUAUGG RNA 2: GGGAAUGGAUCCACAUCUACGAAUUCGUACCAUAGAGAGGUUAUCCGCAGACCGAGAUCGGAAGAGCACACGU",13.4 ± 1.3
12,"target 1 insG 3' of 19,insG 3' of 2 (mixed) RNA 1: CACCCGUGCAAAAAUGCAGGGGUCUAAAACUGAGCGGAUAACCUCUCUAUGG RNA 2: GGGAAUGGAUCCACAUCUACGAAUUCGUACCAUGAGAGAGGUUAUCCGCUCGACCGAGAUCGGAAGAGCACACGU",99 ± 26
13,"target 1 C2A,U10G (mixed) RNA 1: CACCCGUGCAAAAAUGCAGGGGUCUAAAACUGAGCGGAUAACCUCUCUAUGG RNA 2: GGGAAUGGAUCCACAUCUACGAAUUCGUACCAUAGAGAGGUGAUCCGCUAACCGAGAUCGGAAGAGCACACGU",28 ± 1.9
14,"target 1 insG 3' of 16,insU 3' of 4 (mixed) RNA 1: CACCCGUGCAAAAAUGCAGGGGUCUAAAACUGAGCGGAUAACCUCUCUAUGG RNA 2: GGGAAUGGAUCCACAUCUACGAAUUCGUACCAUAGAGGAGGUUAUCCGCUUCACCGAGAUCGGAAGAGCACACGU",13.9 ± 0.6
15,"target 1 C7U,U8G (mixed) RNA 1: CACCCGUGCAAAAAUGCAGGGGUCUAAAACUGAGCGGAUAACCUCUCUAUGG RNA 2: GGGAAUGGAUCCACAUCUACGAAUUCGUACCAUAGAGAGGUUAGUCGCUCACCGAGAUCGGAAGAGCACACGU",14.2 ± 1
16,"target 1 insG 3' of 6,insU 3' of 1 (mixed) RNA 1: CACCCGUGCAAAAAUGCAGGGGUCUAAAACUGAGCGGAUAACCUCUCUAUGG RNA 2: GGGAAUGGAUCCACAUCUACGAAUUCGUACCAUAGAGAGGUUAUCCGGCUCAUCCGAGAUCGGAAGAGCACACGU",17.8 ± 2.3
17,"target 1 insA 3' of 8,insC 3' of 3 (mixed) RNA 1: CACCCGUGCAAAAAUGCAGGGGUCUAAAACUGAGCGGAUAACCUCUCUAUGG RNA 2: GGGAAUGGAUCCACAUCUACGAAUUCGUACCAUAGAGAGGUUAUACCGCUCCACCGAGAUCGGAAGAGCACACGU",15.8 ± 0.6
18,"target 1 insG 3' of 11,insG 3' of 3 (mixed) RNA 1: CACCCGUGCAAAAAUGCAGGGGUCUAAAACUGAGCGGAUAACCUCUCUAUGG RNA 2: GGGAAUGGAUCCACAUCUACGAAUUCGUACCAUAGAGAGGUGUAUCCGCUGCACCGAGAUCGGAAGAGCACACGU",42 ± 7
19,"target 1 U8A,U11A (mixed) RNA 1: CACCCGUGCAAAAAUGCAGGGGUCUAAAACUGAGCGGAUAACCUCUCUAUGG RNA 2: GGGAAUGGAUCCACAUCUACGAAUUCGUACCAUAGAGAGGAUAACCGCUCACCGAGAUCGGAAGAGCACACGU",26.8 ± 1.9
20,"target 1 insC 3' of 20,insU 3' of 12 (mixed) RNA 1: CACCCGUGCAAAAAUGCAGGGGUCUAAAACUGAGCGGAUAACCUCUCUAUGG RNA 2: GGGAAUGGAUCCACAUCUACGAAUUCGUACCACUAGAGAGGUUUAUCCGCUCACCGAGAUCGGAAGAGCACACGU",6.19 ± 0.32
21,"target 1 C6U,A14G (mixed) RNA 1: CACCCGUGCAAAAAUGCAGGGGUCUAAAACUGAGCGGAUAACCUCUCUAUGG RNA 2: GGGAAUGGAUCCACAUCUACGAAUUCGUACCAUAGAGGGGUUAUCUGCUCACCGAGAUCGGAAGAGCACACGU",14.2 ± 0.7
22,"target 1 insC 3' of 10,insA 3' of 4 (mixed) RNA 1: CACCCGUGCAAAAAUGCAGGGGUCUAAAACUGAGCGGAUAACCUCUCUAUGG RNA 2: GGGAAUGGAUCCACAUCUACGAAUUCGUACCAUAGAGAGGUUCAUCCGCAUCACCGAGAUCGGAAGAGCACACGU",15.5 ± 2.6
23,"target 1 A1G,A20C (mixed) RNA 1: CACCCGUGCAAAAAUGCAGGGGUCUAAAACUGAGCGGAUAACCUCUCUAUGG RNA 2: GGGAAUGGAUCCACAUCUACGAAUUCGUACCCUAGAGAGGUUAUCCGCUCGCCGAGAUCGGAAGAGCACACGU",41 ± 4
24,"target 1 del6,del7 (mixed) RNA 1: CACCCGUGCAAAAAUGCAGGGGUCUAAAACUGAGCGGAUAACCUCUCUAUGG RNA 2: GGGAAUGGAUCCACAUCUACGAAUUCGUACCAUAGAGAGGUUAUGCUCACCGAGAUCGGAAGAGCACACGU",11.4 ± 0.7
25,"target 1 G13A,A20U (mixed) RNA 1: CACCCGUGCAAAAAUGCAGGGGUCUAAAACUGAGCGGAUAACCUCUCUAUGG RNA 2: GGGAAUGGAUCCACAUCUACGAAUUCGUACCUUAGAGAAGUUAUCCGCUCACCGAGAUCGGAAGAGCACACGU",14.5 ± 2.2
26,"target 1 insA 3' of 11,insA 3' of 3 (mixed) RNA 1: CACCCGUGCAAAAAUGCAGGGGUCUAAAACUGAGCGGAUAACCUCUCUAUGG RNA 2: GGGAAUGGAUCCACAUCUACGAAUUCGUACCAUAGAGAGGUAUAUCCGCUACACCGAGAUCGGAAGAGCACACGU",14 ± 0.7
27,"target 1 insC 3' of 15,insC 3' of 8 (mixed) RNA 1: CACCCGUGCAAAAAUGCAGGGGUCUAAAACUGAGCGGAUAACCUCUCUAUGG RNA 2: GGGAAUGGAUCCACAUCUACGAAUUCGUACCAUAGAGCAGGUUAUCCCGCUCACCGAGAUCGGAAGAGCACACGU",26.2 ± 2.8
28,"target 1 insA 3' of 6,insA 3' of 2 (mixed) RNA 1: CACCCGUGCAAAAAUGCAGGGGUCUAAAACUGAGCGGAUAACCUCUCUAUGG RNA 2: GGGAAUGGAUCCACAUCUACGAAUUCGUACCAUAGAGAGGUUAUCCAGCUCAACCGAGAUCGGAAGAGCACACGU",18.7 ± 1.3
